Columns and labels:
Assay in all cases: EMSA
Mbd4-Strep = Mbd4-Strep (UniProt Q9Z2D7 1-554)
mcherry-Tet1CD = mcherry-Tet1CD (UniProt Q3URK3 1367-2039)
MBD-YFP (MBD of Mecp2) = MBD-YFP (MBD of Mecp2) (UniProt Q9Z2D6 77-167)

Measured: binding result

Sequence of MBD-YFP (MBD of Mecp2) (Q9Z2D6 77-167): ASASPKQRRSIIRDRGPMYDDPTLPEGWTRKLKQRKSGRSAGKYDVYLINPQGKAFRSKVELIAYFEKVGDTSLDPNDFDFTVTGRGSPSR
Sequence of Mbd4-Strep (Q9Z2D7 whole entry): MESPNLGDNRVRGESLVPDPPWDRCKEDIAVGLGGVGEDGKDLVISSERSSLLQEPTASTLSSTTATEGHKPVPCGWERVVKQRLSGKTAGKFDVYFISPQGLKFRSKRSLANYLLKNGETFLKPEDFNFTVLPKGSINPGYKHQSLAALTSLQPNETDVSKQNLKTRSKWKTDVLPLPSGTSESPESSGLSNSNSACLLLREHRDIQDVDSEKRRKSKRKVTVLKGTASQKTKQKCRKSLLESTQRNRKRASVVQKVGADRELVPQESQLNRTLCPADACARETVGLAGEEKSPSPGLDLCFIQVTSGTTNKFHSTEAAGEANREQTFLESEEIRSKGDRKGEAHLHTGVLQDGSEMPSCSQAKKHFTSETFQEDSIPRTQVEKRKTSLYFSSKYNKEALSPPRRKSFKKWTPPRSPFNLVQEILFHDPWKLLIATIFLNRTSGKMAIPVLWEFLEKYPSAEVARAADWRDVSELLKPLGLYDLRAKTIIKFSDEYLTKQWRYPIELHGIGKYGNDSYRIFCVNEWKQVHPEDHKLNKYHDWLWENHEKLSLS
Sequence of mcherry-Tet1CD (Q3URK3 1367-2039): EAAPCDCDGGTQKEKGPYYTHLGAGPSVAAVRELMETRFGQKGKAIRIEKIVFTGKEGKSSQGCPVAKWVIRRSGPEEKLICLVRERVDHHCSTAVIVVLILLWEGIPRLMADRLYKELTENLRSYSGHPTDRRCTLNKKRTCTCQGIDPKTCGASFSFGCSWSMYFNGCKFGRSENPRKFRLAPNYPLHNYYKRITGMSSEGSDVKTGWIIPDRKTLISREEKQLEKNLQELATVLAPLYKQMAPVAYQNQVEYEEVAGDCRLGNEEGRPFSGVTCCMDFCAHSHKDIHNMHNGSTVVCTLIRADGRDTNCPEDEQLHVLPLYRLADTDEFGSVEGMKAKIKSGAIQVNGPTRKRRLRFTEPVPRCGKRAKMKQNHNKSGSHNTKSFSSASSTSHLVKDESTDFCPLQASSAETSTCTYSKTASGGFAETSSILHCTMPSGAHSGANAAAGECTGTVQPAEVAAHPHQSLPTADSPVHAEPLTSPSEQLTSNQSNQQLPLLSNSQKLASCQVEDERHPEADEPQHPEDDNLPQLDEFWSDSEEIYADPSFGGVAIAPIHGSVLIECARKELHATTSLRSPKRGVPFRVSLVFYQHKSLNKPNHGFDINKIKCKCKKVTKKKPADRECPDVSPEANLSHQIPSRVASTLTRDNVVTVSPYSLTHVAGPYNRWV

B1: mC:mC fully methylated CpG 42-mer (dsDNA)
DNA 1: CTCAACAACTAACTACCATCCGGACCAGAAGAGTCATCATGG
DNA 2: CCATGATGACTCTTCTGGTCCGGATGGTAGTTAGTTGTTGAG
modifications: 5mC at position 21 of both strands
binds: Mbd4-Strep | mcherry-Tet1CD | MBD-YFP (MBD of Mecp2)
